Results as given in patent US20220168396A1, “MULTI-RECEPTOR AGONIST AND MEDICAL USE THEREOF” (published 2022).
Square brackets hold non-standard residues; d marks the D form. Ends that are not written are not given here. Aib = CC(C)(N)C(=O)O

T1: human glucose-dependent insulinotropic peptide receptor (human, UniProt P48546)
T1 sequence: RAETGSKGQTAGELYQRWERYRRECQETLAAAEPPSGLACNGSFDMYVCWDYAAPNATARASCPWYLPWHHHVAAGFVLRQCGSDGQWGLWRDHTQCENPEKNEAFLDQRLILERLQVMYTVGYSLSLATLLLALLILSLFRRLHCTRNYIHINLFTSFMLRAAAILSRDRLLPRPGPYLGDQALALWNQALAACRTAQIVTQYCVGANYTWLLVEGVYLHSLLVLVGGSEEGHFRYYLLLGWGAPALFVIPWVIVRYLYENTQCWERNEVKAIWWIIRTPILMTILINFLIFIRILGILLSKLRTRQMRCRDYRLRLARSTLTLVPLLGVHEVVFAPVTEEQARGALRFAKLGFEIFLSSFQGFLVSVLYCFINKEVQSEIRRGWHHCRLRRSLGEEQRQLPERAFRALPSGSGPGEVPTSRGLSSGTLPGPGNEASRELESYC

B1: Compound No. 19 (peptide)
peptide: Y[Aib]EGTFTSDYSIYLDKEAAKEFVNWLLAGGPSSGAPPPSK-NH2
modifications: N-terminus assumed
SMILES: CC[C@H](C)[C@H](NC(=O)[C@H](CO)NC(=O)[C@H](Cc1ccc(O)cc1)NC(=O)[C@H](CC(=O)O)NC(=O)[C@H](CO)NC(=O)[C@@H](NC(=O)[C@H](Cc1ccccc1)NC(=O)[C@@H](NC(=O)CNC(=O)[C@H](CCC(=O)O)NC(=O)C(C)(C)NC(=O)[C@@H](N)Cc1ccc(O)cc1)[C@@H](C)O)[C@@H](C)O)C(=O)N[C@@H](Cc1ccc(O)cc1)C(=O)N[C@@H](CC(C)C)C(=O)N[C@@H](CC(=O)O)C(=O)N[C@@H](CCCCN)C(=O)N[C@@H](CCC(=O)O)C(=O)N[C@@H](C)C(=O)N[C@@H](C)C(=O)N[C@@H](CCCCN)C(=O)N[C@@H](CCC(=O)O)C(=O)N[C@@H](Cc1ccccc1)C(=O)N[C@H](C(=O)N[C@@H](CC(N)=O)C(=O)N[C@@H](Cc1c[nH]c2ccccc12)C(=O)N[C@@H](CC(C)C)C(=O)N[C@@H](CC(C)C)C(=O)N[C@@H](C)C(=O)NCC(=O)NCC(=O)N1CCC[C@H]1C(=O)N[C@@H](CO)C(=O)N[C@@H](CO)C(=O)NCC(=O)N[C@@H](C)C(=O)N1CCC[C@H]1C(=O)N1CCC[C@H]1C(=O)N1CCC[C@H]1C(=O)N[C@@H](CO)C(=O)N[C@@H](CCCCN)C(N)=O)C(C)C
B2: Compound No. 20 (peptide)
peptide: Y[Aib]EGTFTSDYSIYLDKIAAQEFVNWLLAGGPSSGAPPPSK-NH2
modifications: N-terminus assumed
SMILES: CC[C@H](C)[C@H](NC(=O)[C@H](CCCCN)NC(=O)[C@H](CC(=O)O)NC(=O)[C@H](CC(C)C)NC(=O)[C@H](Cc1ccc(O)cc1)NC(=O)[C@@H](NC(=O)[C@H](CO)NC(=O)[C@H](Cc1ccc(O)cc1)NC(=O)[C@H](CC(=O)O)NC(=O)[C@H](CO)NC(=O)[C@@H](NC(=O)[C@H](Cc1ccccc1)NC(=O)[C@@H](NC(=O)CNC(=O)[C@H](CCC(=O)O)NC(=O)C(C)(C)NC(=O)[C@@H](N)Cc1ccc(O)cc1)[C@@H](C)O)[C@@H](C)O)[C@@H](C)CC)C(=O)N[C@@H](C)C(=O)N[C@@H](C)C(=O)N[C@@H](CCC(N)=O)C(=O)N[C@@H](CCC(=O)O)C(=O)N[C@@H](Cc1ccccc1)C(=O)N[C@H](C(=O)N[C@@H](CC(N)=O)C(=O)N[C@@H](Cc1c[nH]c2ccccc12)C(=O)N[C@@H](CC(C)C)C(=O)N[C@@H](CC(C)C)C(=O)N[C@@H](C)C(=O)NCC(=O)NCC(=O)N1CCC[C@H]1C(=O)N[C@@H](CO)C(=O)N[C@@H](CO)C(=O)NCC(=O)N[C@@H](C)C(=O)N1CCC[C@H]1C(=O)N1CCC[C@H]1C(=O)N1CCC[C@H]1C(=O)N[C@@H](CO)C(=O)N[C@@H](CCCCN)C(N)=O)C(C)C
B3: Compound No. 22 (peptide)
peptide: Y[Aib]EGTFTSDYSIYLD[Aib]IAAQEFVQWLLAGGPSSGAPPPSK-NH2
modifications: N-terminus assumed
SMILES: CC[C@H](C)[C@H](NC(=O)[C@H](CO)NC(=O)[C@H](Cc1ccc(O)cc1)NC(=O)[C@H](CC(=O)O)NC(=O)[C@H](CO)NC(=O)[C@@H](NC(=O)[C@H](Cc1ccccc1)NC(=O)[C@@H](NC(=O)CNC(=O)[C@H](CCC(=O)O)NC(=O)C(C)(C)NC(=O)[C@@H](N)Cc1ccc(O)cc1)[C@@H](C)O)[C@@H](C)O)C(=O)N[C@@H](Cc1ccc(O)cc1)C(=O)N[C@@H](CC(C)C)C(=O)N[C@@H](CC(=O)O)C(=O)NC(C)(C)C(=O)N[C@H](C(=O)N[C@@H](C)C(=O)N[C@@H](C)C(=O)N[C@@H](CCC(N)=O)C(=O)N[C@@H](CCC(=O)O)C(=O)N[C@@H](Cc1ccccc1)C(=O)N[C@H](C(=O)N[C@@H](CCC(N)=O)C(=O)N[C@@H](Cc1c[nH]c2ccccc12)C(=O)N[C@@H](CC(C)C)C(=O)N[C@@H](CC(C)C)C(=O)N[C@@H](C)C(=O)NCC(=O)NCC(=O)N1CCC[C@H]1C(=O)N[C@@H](CO)C(=O)N[C@@H](CO)C(=O)NCC(=O)N[C@@H](C)C(=O)N1CCC[C@H]1C(=O)N1CCC[C@H]1C(=O)N1CCC[C@H]1C(=O)N[C@@H](CO)C(=O)N[C@@H](CCCCN)C(N)=O)C(C)C)[C@@H](C)CC
B4: Compound No. 23 (peptide)
peptide: Y[Aib]EGTFTSDYSIYLEKEAAKEFVNWLLAQKPSSGAPPPSK-NH2
modifications: N-terminus assumed
SMILES: CC[C@H](C)[C@H](NC(=O)[C@H](CO)NC(=O)[C@H](Cc1ccc(O)cc1)NC(=O)[C@H](CC(=O)O)NC(=O)[C@H](CO)NC(=O)[C@@H](NC(=O)[C@H](Cc1ccccc1)NC(=O)[C@@H](NC(=O)CNC(=O)[C@H](CCC(=O)O)NC(=O)C(C)(C)NC(=O)[C@@H](N)Cc1ccc(O)cc1)[C@@H](C)O)[C@@H](C)O)C(=O)N[C@@H](Cc1ccc(O)cc1)C(=O)N[C@@H](CC(C)C)C(=O)N[C@@H](CCC(=O)O)C(=O)N[C@@H](CCCCN)C(=O)N[C@@H](CCC(=O)O)C(=O)N[C@@H](C)C(=O)N[C@@H](C)C(=O)N[C@@H](CCCCN)C(=O)N[C@@H](CCC(=O)O)C(=O)N[C@@H](Cc1ccccc1)C(=O)N[C@H](C(=O)N[C@@H](CC(N)=O)C(=O)N[C@@H](Cc1c[nH]c2ccccc12)C(=O)N[C@@H](CC(C)C)C(=O)N[C@@H](CC(C)C)C(=O)N[C@@H](C)C(=O)N[C@@H](CCC(N)=O)C(=O)N[C@@H](CCCCN)C(=O)N1CCC[C@H]1C(=O)N[C@@H](CO)C(=O)N[C@@H](CO)C(=O)NCC(=O)N[C@@H](C)C(=O)N1CCC[C@H]1C(=O)N1CCC[C@H]1C(=O)N1CCC[C@H]1C(=O)N[C@@H](CO)C(=O)N[C@@H](CCCCN)C(N)=O)C(C)C
B5: Compound No. 1 (peptide)
peptide: H[Aib]EGTFTSDVSSYLEEEAAKEFIAWLVRGGPSSGAPPPSK-NH2
modifications: N-terminus assumed
SMILES: CC[C@H](C)[C@H](NC(=O)[C@H](Cc1ccccc1)NC(=O)[C@H](CCC(=O)O)NC(=O)[C@H](CCCCN)NC(=O)[C@H](C)NC(=O)[C@H](C)NC(=O)[C@H](CCC(=O)O)NC(=O)[C@H](CCC(=O)O)NC(=O)[C@H](CCC(=O)O)NC(=O)[C@H](CC(C)C)NC(=O)[C@H](Cc1ccc(O)cc1)NC(=O)[C@H](CO)NC(=O)[C@H](CO)NC(=O)[C@@H](NC(=O)[C@H](CC(=O)O)NC(=O)[C@H](CO)NC(=O)[C@@H](NC(=O)[C@H](Cc1ccccc1)NC(=O)[C@@H](NC(=O)CNC(=O)[C@H](CCC(=O)O)NC(=O)C(C)(C)NC(=O)[C@@H](N)Cc1c[nH]cn1)[C@@H](C)O)[C@@H](C)O)C(C)C)C(=O)N[C@@H](C)C(=O)N[C@@H](Cc1c[nH]c2ccccc12)C(=O)N[C@@H](CC(C)C)C(=O)N[C@H](C(=O)N[C@@H](CCCNC(=N)N)C(=O)NCC(=O)NCC(=O)N1CCC[C@H]1C(=O)N[C@@H](CO)C(=O)N[C@@H](CO)C(=O)NCC(=O)N[C@@H](C)C(=O)N1CCC[C@H]1C(=O)N1CCC[C@H]1C(=O)N1CCC[C@H]1C(=O)N[C@@H](CO)C(=O)N[C@@H](CCCCN)C(N)=O)C(C)C
B6: Compound No. 24 (peptide)
peptide: Y[Aib]EGTFTSDYSIYLEKIAAQEFVNWLLAQKPSSGAPPPSK-NH2
modifications: N-terminus assumed
SMILES: CC[C@H](C)[C@H](NC(=O)[C@H](CCCCN)NC(=O)[C@H](CCC(=O)O)NC(=O)[C@H](CC(C)C)NC(=O)[C@H](Cc1ccc(O)cc1)NC(=O)[C@@H](NC(=O)[C@H](CO)NC(=O)[C@H](Cc1ccc(O)cc1)NC(=O)[C@H](CC(=O)O)NC(=O)[C@H](CO)NC(=O)[C@@H](NC(=O)[C@H](Cc1ccccc1)NC(=O)[C@@H](NC(=O)CNC(=O)[C@H](CCC(=O)O)NC(=O)C(C)(C)NC(=O)[C@@H](N)Cc1ccc(O)cc1)[C@@H](C)O)[C@@H](C)O)[C@@H](C)CC)C(=O)N[C@@H](C)C(=O)N[C@@H](C)C(=O)N[C@@H](CCC(N)=O)C(=O)N[C@@H](CCC(=O)O)C(=O)N[C@@H](Cc1ccccc1)C(=O)N[C@H](C(=O)N[C@@H](CC(N)=O)C(=O)N[C@@H](Cc1c[nH]c2ccccc12)C(=O)N[C@@H](CC(C)C)C(=O)N[C@@H](CC(C)C)C(=O)N[C@@H](C)C(=O)N[C@@H](CCC(N)=O)C(=O)N[C@@H](CCCCN)C(=O)N1CCC[C@H]1C(=O)N[C@@H](CO)C(=O)N[C@@H](CO)C(=O)NCC(=O)N[C@@H](C)C(=O)N1CCC[C@H]1C(=O)N1CCC[C@H]1C(=O)N1CCC[C@H]1C(=O)N[C@@H](CO)C(=O)N[C@@H](CCCCN)C(N)=O)C(C)C

Columns and labels:
[1] = target: human glucagon-like peptide-1 receptor (human, UniProt P43220); assay: cell-based or functional assay
[2] = target: T1, human glucose-dependent insulinotropic …; assay: cell-based or functional assay

| Binder | Activity for human GLP-1R (EC50 nM), cAMP HTRF [1] | Activity for human GIPR (EC50 nM), cAMP HTRF [2] |
| --- | --- | --- |
| B1 | 0.024 nM | 0.02 nM |
| B2 | 0.027 nM | 0.008 nM |
| B3 | 0.051 nM | 0.018 nM |
| B4 | 0.059 nM | 0.02 nM |
| B5 | 0.005 nM | > 10 nM |
| B6 | 0.083 nM | 0.008 nM |
